We go through one substance from paper PMC5296656.

This assay addresses RpL4 (as it stands in the Acl4·RpL4 complex) (not stated (S. cerevisiae or C. thermophilum cDNA cloned)). Briefly: SEC; Superdex 200 10/300 GL, 20 mM TRIS pH 8.0, 100 mM NaCl, 5 mM DTT; pre-incubation 1 h at 4 °C; fractions on SDS-PAGE, Coomassie.

On to “Acl4 (untagged, purified) (natural protein)”, for which the stoichiometry N (Acl4 per RpL4) came out at 2.
